From patent publication US20220235123A1 (UNIVERSITY OF TORONTO, published 2022)
Residue numbers refer to the chain shown, from its start.

How the values were obtained:
[1] = target: T1, recombinant human vascular endothelial growth factor (hVEGF) 121 (human, UniProt P15692 27-147); assay: Fab-ELISA: Fab titrated on wells coated with 2 ug/mL hVEGF-121, detected with anti-kappa-light-chain-HRP; Kd estimated from EC50
T1 construct: mature; also called human VEGF-A121; hVEGF 121 isoform
T1 sequence (looked up): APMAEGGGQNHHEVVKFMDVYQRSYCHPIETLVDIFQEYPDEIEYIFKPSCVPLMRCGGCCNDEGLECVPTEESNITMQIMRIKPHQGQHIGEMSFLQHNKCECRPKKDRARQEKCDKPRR
Excerpt: (§1) FIG. 4a-b. […] The bound Fabs were detected with anti-Kappa-light-chain-HRP-conjugated antibody (B).

[2] = target: T1, recombinant human vascular endothelial …; assay: Fab-ELISA: Fab titrated on wells coated with 2 ug/mL hVEGF-121, detected with anti-kappa-light-chain-HRP
Excerpt: as §1

[3] = target: recombinant human vascular endothelial growth factor (hVEGF) 121 (human) (UniProt P15692); assay: single point competitive phage-ELISA: residual binding of the Fab-phage to hVEGF after competition with 1 nM hVEGF
[4] = target: T1, recombinant human vascular endothelial …; assay: competitive ELISA, 100 pM Fab with serial dilutions of hVEGF-121, free Fab caught on hVEGF-121 plate; Kd estimated from IC50
[5] = target: T2, recombinant human VEGF 165 isoform (human, UniProt P15692 27-191); assay: competitive ELISA in solution, 10 pM hVEGF-165, free VEGF read with Quantikine kit
T2 construct: mature
Excerpt: (§2) Kd calculated from the data fitted with a 5 parameter asymmetric model with Prism software.
Target sequence in this assay (P15692 other isoform, or with tags, fused parts or gaps): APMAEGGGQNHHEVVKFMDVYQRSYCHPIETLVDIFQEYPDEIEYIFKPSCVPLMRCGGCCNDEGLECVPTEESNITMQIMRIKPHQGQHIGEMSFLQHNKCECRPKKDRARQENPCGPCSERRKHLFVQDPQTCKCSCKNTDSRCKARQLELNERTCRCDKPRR

[6] = target: T1, recombinant human vascular endothelial …; assay: single point competitive phage-ELISA: residual binding of the Fab-phage to hVEGF after competition with 1 nM hVEGF
[7] = target: T1, recombinant human vascular endothelial …; assay: competitive Fab-ELISA (hVEGF)
[8] = target: T1, recombinant human vascular endothelial …; assay: competitive ELISA with soluble Fab (column 'Affinity measured by competitive ELISA'); hVEGF, isoform not told in the legend
[9] = target: T1, recombinant human vascular endothelial …; assay: competitive Fab-ELISA, data and fit for the Kd of panel A; x axis printed as LOG([Fab] nM) with ticks 10^-6 to 10^2; hVEGF, isoform not told
[10] = target: T1, recombinant human vascular endothelial …; assay: competitive Fab-ELISA
[11] = target: T1, recombinant human vascular endothelial …; assay: SPR, off rate of hVEGF-121 binding
[12] = target: T2, recombinant human VEGF 165 isoform; assay: competitive ELISA in solution: 10 pM hVEGF-165 incubated with serial dilutions of the Fab; hVEGF-165 captured and detected with the Quantikine human VEGF ELISA kit
Excerpt: FIG. 20. Competitive-ELISA. […] Kd was estimated using IC50 calculated from the data fitted with a 5 parameter asymmetric model with Prism software are shown in the table at the bottom of the figure.
as §2

[13] = target: T2, recombinant human VEGF 165 isoform; assay: competitive ELISA in solution: 5 pM hVEGF-165 incubated with serial dilutions of the Fab; hVEGF-165 captured and detected with the Quantikine human VEGF ELISA kit
Excerpt: FIG. 11. Competitive Fab-ELISA.
Since library FF01159-1 was designed with a deletion of one residue near the end of CDR-L2 (Kabat), the selected Fabs FF03033-4 and FF03033-8 were mutagenized to reintroduce previously deleted tyrosine residue back at the deleted position.

[14] = target: T2, recombinant human VEGF 165 isoform; assay: competitive ELISA in solution: 5 pM hVEGF-165 incubated with serial dilutions of the antibody; hVEGF-165 captured and detected with the Quantikine human VEGF ELISA kit
[15] = target: T2, recombinant human VEGF 165 isoform; assay: competitive ELISA in solution: 5 pM hVEGF-165 incubated with serial dilutions of the antibody; hVEGF-165 captured and detected with the Quantikine human VEGF ELISA kit; 5 parameter fit
[16] = target: T2, recombinant human VEGF 165 isoform; assay: cell-based or functional assay

B1: FF0124-4 (Fab, V domains shown)
VH: EVQLVESGGGLVQPGGSLRLSCAASGFDLYSYSIHWVRQAPGKGLEWVASIYSYSGYTYYADSVKGRFTISADTSKNTAYLQMNSLRAEDTAVYYCARGGWYALDYWGQGTLVTVSS
VL: DIQMTQSPSSLSASVGDRVTITCRASQSVSSAVAWYQQKPGKAPKLLIYSASSLYSGVPSRFSGSRSGTDFTLTISSLQPEDFATYYCQQGYGPFYSLITFGQGTKVEIK
notes: also called FF0124-4 F2088
For B1, the Kd [1] was 11 nM and the “EC50 (read off the curve)” value [2] was roughly 10 nM.

B2: FF0117-A10 (Fab, V domains shown)
VH: EVQLVESGGGLVQPGGSLRLSCAASGFDLFHYSIHWVRQAPGKGLEWVAYIYPSYGYTYYADSVKGRFTISADTSKNTAYLQMNSLRAEDTAVYYCARHAWYYGWALDYWGQGTLVTVSS
VL: DIQMTQSPSSLSASVGDRVTITCRASQSVSSAVAWYQQKPGKAPKLLIYSASSLYSGVPSRFSGSRSGTDFTLTISSLQPEDFATYYCQQRGWYLFTFGQGTKVEIK
In the case of B2, the Residual binding of competitive phage-ELISA 1nM [3] is reported as 7%.

B3: Fab 201 (Variant 201, produced from Clone #201) (Fab, V domains shown)
VH: B2 VH with A106G
VL: DIQMTQSPSSLSASVGDRVTITCRASQAAYGRVAWYQQKPGKAPKLLIYKASELYAGVPSRFSGSRSGTDFTLTISSLQPEDFATYYCQQRGWYLFTFGQGTKVEIKR
notes: also called Fab-F8.y
B3 showed a Kd [4] of 0.11 nM and a Kd [5] of 0.025 nM.

B4: FF0117-A8 (Fab, V domains shown)
VH: B2 VH with Y103S
VL: B2 VL
notes: fourth generation Fab from the library based on FF0188-H5
For B4, the “Residual binding of competitive phage-ELISA 1nM” value (“Residual binding” below) [6] was 17% and the Kd [7] was 0.13 nM.

B5: FF0117-A3 (Fab, V domains shown)
VH: B2 VH with Y103F
VL: B2 VL
notes: as for B4
In the case of B5, the “Residual binding” value [6] is reported as 7% and the Kd [7] is reported as 0.06 nM.

B6: FF0158-C4 (Fab, V domains shown)
VH: B2 VH with D28N, F30Y, H31Y, Y103S, L107M
VL: B2 VL
notes: Second generation Fab, Fab-phage in the single point assay; also called FF0158-C4 (2)
In the case of B6, the Kd [8] is reported as 0.15 nM and the “IC50 (read off the curve)” value [9] is reported as roughly 0.1 nM.

B7: FF0117-A11 (Fab, V domains shown)
VH: B2 VH with Y103W
VL: B2 VL
notes: as for B4
B7 was tested, and the “Residual binding” value [6] was 5% and the Kd [7] was 0.03 nM.

B8: FF0117-A5 (Fab, V domains shown)
VH: B2 VH with A106G
VL: B2 VL
notes: Fourth generation Fab; also called FF0117-A5 (2); Fab-A5
In the case of B8, the Kd [10] is reported as 0.08 nM, the “Residual binding” value [6] is reported as 14% and the koff [11] is reported as 0.000255 s⁻¹.

B9: FF0188-H5 (Fab, V domains shown)
VH: B2 VH with Y103S, L107M
VL: B2 VL
notes: third generation Fab, parent of the FF0117 library; also called FF0188-H5(2)
For B9, the Kd [8] was 0.45 nM, the “IC50 (read off the curve)” value [9] was roughly 0.4 nM and the Kd [7] was 0.4 nM.

B10: FF0188-B10 (Fab, V domains shown)
VH: B2 VH with Y103S, L107M
VL: B2 VL
notes: third generation Fab from libraries based on FF0158-C4; also called FF01088-B10
B10 was tested, and the Kd [8] was 0.41 nM and the “IC50 (read off the curve)” value [9] was roughly 0.4 nM.

B11: Fab variant 216 (Fab 216, derived from Clone #201) (Fab, V domains shown)
VH: B2 VH with F30D, A106G
VL: B3 VL
In the case of B11, the Kd [5] is reported as 0.035 nM and the “IC50 (read off the curve)” value [12] is reported as roughly 0.04 nM.

B12: Fab FF03046-2 (Fab, V domains shown)
VH: B2 VH with A106G
VL: B3 VL
notes: also called FF0346-2
For B12, the “IC50 (read off the curve)” value [13] was roughly 0.09 nM, the “IC50 (read off the curve)” value [14] was roughly 0.09 nM and the Kd [15] was 0.09 nM. The “EC50, HUVEC proliferation assay” value [16] was 0.2 nM.

B13: FF0124-5 (Fab, V domains shown)
VH: EVQLVESGGGLVQPGGSLRLSCAASGFDISSYYMHWVRQAPGKGLEWVASIYSYSGYTYYADSVKGRFTISADTSKNTAYLQMNSLRAEDTAVYYCARHSVYYWYGSYWYYPSSAMDYWGQGTLVTVSS
VL: DIQMTQSPSSLSASVGDRVTITCRASQSVSSAVAWYQQKPGKAPKLLIYSASSLYSGVPSRFSGSRSGTDFTLTISSLQPEDFATYYCQQFWAGYGLITFGQGTKVEIK
notes: also called FF0124-5 F2091
B13 was tested, and the Kd [1] was 19 nM and the “EC50 (read off the curve)” value [2] was roughly 20 nM.

B14: FF0124-6 (Fab, V domains shown)
VH: EVQLVESGGGLVQPGGSLRLSCAASGFDIYYYSMHWVRQAPGKGLEWVASISSYSGYTSYADSVKGRFTISADTSKNTAYLQMNSLRAEDTAVYYCARYPYYYWAFDYWGQGTLVTVSS
VL: B13 VL with F91S, W92G, A93H, G94Y, Y95H, G96Y, L97P, I98F
notes: also called FF0124-6 F2094
For B14, the Kd [1] was 25 nM and the “EC50 (read off the curve)” value [2] was roughly 20 nM.
